# Numbering of substitutions follows the chain as printed.
# B1: anti-KDR monoclonal antibody 24B3 (antibody, V domains shown)
# VH: EVQLVESGGGLVKPGGSLRLSCAASGFTFSTYSMNWVRQAPGKGLEWVSFISGRSSYIYYADSVKGRFTISRDNAKNSLYLQMNSLRAEDTAVYYCSKDDWFEELWGQGTLVTVSS
# VL: DIQMTQSPSSLSASVGDRVTITCRASQGIRSDLGWYQQKPGKAPKRLIYATSSLQSGVPSRFSGSGSGTEFTLTISSLQPEDFATYYCLQHNRYPWTFGQGTKVEIK
# notes: Fully human mAb from XenoMouse (IgG2 or IgG4 strain); hybridoma supernatant
# B2: anti-KDR monoclonal antibody 33B1 (antibody, V domains shown)
# VH: B1 VH with T31S, S33T, S52D, G53S
# VL: B1 VL with S31N, Q90H, R93S, Y94F
# notes: as for B1
# B3: anti-KDR monoclonal antibody 32G7 (antibody, V domains shown)
# VH: B1 VH with F29I, T31S, G53S, S56N
# VL: B1 VL with G28D, S31N, T51A, R93S, Y94F
# notes: as for B1
# B4: anti-KDR monoclonal antibody 33E1 (antibody, V domains shown)
# VH: QVQLQESGPGLVKPSQTLSLTCTVSGGSISSGDHYWSWIRQHPGKGLEWIGHIYYSGSTDYNPSLKSRVTISVDTSKNHFSLKLNSVTAADTAVYYCARTNSSSWSDWYFDLWGRGTLVTVSS
# VL: DIVMTQSPDSLAVSLGERATINCKSSQSILYSSNNKNYLAWYQRKPGQPPILLIHWASTRESGVPDRFSGSGSRTDFTLTISSLQAEDVAVYYCQQYFITPWTFGQGTKVEIK
# notes: as for B1
# B5: anti-KDR monoclonal antibody 30H10 (antibody, V domains shown)
# VH: EVQLLESGGGLVQPGGSLRLSCAASGFTFSNYAMSWVRQAPGKGLEWVSAISGSGGITYYADSVKGRFTISRDNSKNTLFLQMNSLRAEDTAVYYCAKASGDNWGQGTLVSVSS
# VL: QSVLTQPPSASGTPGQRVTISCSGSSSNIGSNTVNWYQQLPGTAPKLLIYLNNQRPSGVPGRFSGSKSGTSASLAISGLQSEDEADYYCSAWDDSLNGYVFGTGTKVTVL
# notes: as for B1
# B6: anti-KDR monoclonal antibody 22B8 (antibody, V domains shown)
# VH: QLQLQESGPGLVKPSETLSLTCTVSGGSISSRYYYWGWVRQPPGKGLEWIGTIYYSGHTYYNPSLKTRVTISVDTSKNQFSLKLISVTAADTAVYYCATQQLVLYYFDFWGQGTLVTVSS
# VL: EIVLTQSPGTLSLSPGERAALSCRASQSISSSYLAWYQQRPGQAPRLLIYGASSRATGIPDRFNGSGSGTDFTLTISRLEPEDFAVYYCQQFGSSITFGQGTRLEIK
# notes: as for B1
# B7: anti-KDR monoclonal antibody 27D10 (antibody, V domains shown)
# VH: B6 VH with Y33S, Y34D, V39I, H58S, Y60F, T67S, I85S, T99R, F109Y
# VL: not shown
# notes: as for B1
# B8: anti-KDR monoclonal antibody 30A1 (antibody, V domains shown)
# VH: B6 VH with R32P, Y33N, V39I, H58N, Y60F, T67S, I85S
# VL: B6 VL with E17K, R40K, F92L
# notes: as for B1
# B9: anti-KDR monoclonal antibody 33C3 (antibody, V domains shown)
# VH: QVQLVESGGGLVKPGESLRLSCAASGFTFSDYYMSWIRQAPGKGLEWVSYISHGGSTIYYADSVKGRFTISRDNAKNSLYLQMNSLRVEDTAVYFCARDDFWSGYYFNWFDPWGQGALVTVSS
# VL: DIQMTQYPLSLSASVGDRVTITCRASQSISSFLNWYHQKPGKAPKLLIYGTSSLQSGVPSRFSGSGSGTDFTLTISSLQPEDFATYYCQQTYSIPLTFGGGTNVEIK
# notes: as for B1
# B10: anti-KDR monoclonal antibody 29H3 (antibody, V domains shown)
# VH: QVQLVQSGAEVKKPGASVKVSCKASGYTFTSYDINWVRQATGQGLEWMGWMNPNSGKTGYAQKFQGRVTMTRNTSINTAYMELSSLRSEDTAVYYCARGGYSNLGWFDPWGQGTLVTVSS
# VL: DIQMTQSPSSVSASVGDRVTITCRASQGISSWLVWYHQKPGKAPKLLIYGASSLQSGVPSRFSGSGSGTDFTLTISSLQPEDFATYYCQQANNFPFTFGPGTKVDIK
# notes: as for B1
# Biological target: T1, human KDR (VEGFR2) on cells (human, UniProt P35968 20-1356)
# T1 sequence (P35968 20-1356): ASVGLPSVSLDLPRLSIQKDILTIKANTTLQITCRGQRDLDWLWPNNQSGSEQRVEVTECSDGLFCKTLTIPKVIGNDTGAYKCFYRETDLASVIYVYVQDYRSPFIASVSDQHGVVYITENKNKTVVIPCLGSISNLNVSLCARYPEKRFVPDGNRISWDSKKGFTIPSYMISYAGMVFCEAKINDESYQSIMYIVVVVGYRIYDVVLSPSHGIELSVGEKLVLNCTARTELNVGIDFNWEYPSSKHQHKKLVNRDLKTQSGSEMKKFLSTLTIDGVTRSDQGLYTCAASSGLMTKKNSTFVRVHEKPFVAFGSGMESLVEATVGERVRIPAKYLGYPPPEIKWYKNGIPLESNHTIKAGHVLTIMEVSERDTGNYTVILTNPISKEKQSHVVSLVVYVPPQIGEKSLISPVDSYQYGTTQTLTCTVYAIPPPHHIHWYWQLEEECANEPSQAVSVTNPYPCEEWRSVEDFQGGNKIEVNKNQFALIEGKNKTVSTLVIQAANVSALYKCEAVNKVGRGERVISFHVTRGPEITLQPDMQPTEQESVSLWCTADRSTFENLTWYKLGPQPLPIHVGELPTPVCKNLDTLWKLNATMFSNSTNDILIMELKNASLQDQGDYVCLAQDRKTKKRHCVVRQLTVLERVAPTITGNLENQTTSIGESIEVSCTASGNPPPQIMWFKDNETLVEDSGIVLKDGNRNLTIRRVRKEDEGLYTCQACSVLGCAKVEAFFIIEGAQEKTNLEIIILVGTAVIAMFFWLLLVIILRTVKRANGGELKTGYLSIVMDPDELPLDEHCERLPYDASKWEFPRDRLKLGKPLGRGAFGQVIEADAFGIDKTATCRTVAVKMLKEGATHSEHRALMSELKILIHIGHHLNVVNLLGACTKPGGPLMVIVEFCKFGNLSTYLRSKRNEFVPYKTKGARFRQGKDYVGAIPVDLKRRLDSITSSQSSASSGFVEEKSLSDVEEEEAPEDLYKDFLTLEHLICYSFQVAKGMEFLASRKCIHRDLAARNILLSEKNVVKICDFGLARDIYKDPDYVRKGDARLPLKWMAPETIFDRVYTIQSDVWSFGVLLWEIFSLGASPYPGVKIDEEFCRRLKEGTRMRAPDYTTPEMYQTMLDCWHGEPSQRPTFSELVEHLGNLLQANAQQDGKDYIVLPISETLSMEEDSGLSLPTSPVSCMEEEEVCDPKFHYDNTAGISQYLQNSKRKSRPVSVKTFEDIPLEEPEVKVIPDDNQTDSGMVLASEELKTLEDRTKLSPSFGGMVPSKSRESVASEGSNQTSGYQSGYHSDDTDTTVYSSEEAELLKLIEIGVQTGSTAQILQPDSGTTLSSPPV
# Assay: cell-based or functional assay
Binder,HUVEC survival (n = 1) 1:10 dilution of supernatant (RLU),HUVEC survival (n = 2) 1:20 dilution of supernatant (RLU)
B1,14100,2460
B2,19400,12500
B3,24900,11900
B4,25700,2310
B5,39500,21100
B6,12900,3260
B7,20100,9710
B8,14400,9730
B9,6540,4710
B10,32700,544

# Biological target: T1, human KDR (VEGFR2) on cells
# Assay: cell-based or functional assay
# Remark: another data set of the same source
Binder,"% Inhibition of VEGF165-mediated pTyr Activity, Average [%]","% Inhibition of VEGF165-mediated pTyr Activity, n = 1 [%]","% Inhibition of VEGF165-mediated pTyr Activity, n = 2 [%]","% Inhibition of VEGF165-mediated pTyr Activity, n = 3 [%]"
B1,51,69,51,33
B2,54,76,56,31
B3,44,73,47,11
B4,73,88,78,52
B5,76,92,77,59
B6,67,82,65,53
B7,58,62,48,63
B8,65,86,59,52
B9,71,87,75,50
B10,76,89,72,66

# Biological target: T2, b-KDRIg4-7-myc-his (UniProt P35968 328-764, prefix 'b-' not explained; captured on neutravidin-coated plates (presumably biotinylated, site not stated))
# T2 construct: domain: Ig4-7; The text calls it 'a KDR antibody containing the Ig4-7 domain'; it is read as the KDR fragment; Purified on a nickel column; also called Ig4-7 domain of KDR; soluble KDR Ig4-7; not shown: myc-his tag of the pSecTag vector
# T2 sequence (P35968 328-764): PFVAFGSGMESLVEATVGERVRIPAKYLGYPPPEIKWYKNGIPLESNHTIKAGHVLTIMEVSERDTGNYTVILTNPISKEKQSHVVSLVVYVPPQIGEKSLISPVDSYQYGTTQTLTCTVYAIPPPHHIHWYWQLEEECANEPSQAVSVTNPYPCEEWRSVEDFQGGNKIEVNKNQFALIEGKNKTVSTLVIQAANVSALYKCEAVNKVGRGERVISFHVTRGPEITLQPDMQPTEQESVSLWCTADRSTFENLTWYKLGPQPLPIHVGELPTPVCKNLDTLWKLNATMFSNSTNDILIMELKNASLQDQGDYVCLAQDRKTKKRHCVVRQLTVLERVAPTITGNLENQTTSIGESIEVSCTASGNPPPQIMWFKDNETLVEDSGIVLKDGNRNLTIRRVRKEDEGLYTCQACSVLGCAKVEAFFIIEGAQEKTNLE
# Assay: ELISA, b-KDRIg4-7-myc-his 1 ug/mL on neutravidin, hybridoma supernatant 1:5
# Description: To screen by binding to the Ig4-7 domain of KDR, plates were first coated with neutravadin (Pierce) at 4 μg/mL and incubated overnight at 4° C. The plates were then blocked and subsequently incubated with b-KDRIg4-7-myc-his at 1 μg/mL for one hour at room temperature. Candidate hybridoma supernatants (at 1:5 dilution) were transferred to the plates and incubated for one hour at room temperature. The plates were then washed and incubated with goat anti-human IgG Fc POD (at 1:4000 dilution) for one hour at room temperature.
row,Binder,b-KDRIg4-7 OD(450 nm) [OD450]
1,B1,0.065
2,B2,0.058
3,B3,0.068
4,B4,0.62
5,B5,0.047
6,B6,2.81
7,B7,2.03
8,B8,1.21
9,B9,3.66
10,B10,0.071

# Biological target: T3, mouse KDR (Flk-1)/Fc (Cat. #443-KD/CF, R&D Systems) (mouse, UniProt P35918 20-762)
# T3 construct: Bought reagent; also called mouse VEGFR2; KDR mouse ortholog; Fc part of the bought chimera not given
# T3 sequence (P35918 20-762): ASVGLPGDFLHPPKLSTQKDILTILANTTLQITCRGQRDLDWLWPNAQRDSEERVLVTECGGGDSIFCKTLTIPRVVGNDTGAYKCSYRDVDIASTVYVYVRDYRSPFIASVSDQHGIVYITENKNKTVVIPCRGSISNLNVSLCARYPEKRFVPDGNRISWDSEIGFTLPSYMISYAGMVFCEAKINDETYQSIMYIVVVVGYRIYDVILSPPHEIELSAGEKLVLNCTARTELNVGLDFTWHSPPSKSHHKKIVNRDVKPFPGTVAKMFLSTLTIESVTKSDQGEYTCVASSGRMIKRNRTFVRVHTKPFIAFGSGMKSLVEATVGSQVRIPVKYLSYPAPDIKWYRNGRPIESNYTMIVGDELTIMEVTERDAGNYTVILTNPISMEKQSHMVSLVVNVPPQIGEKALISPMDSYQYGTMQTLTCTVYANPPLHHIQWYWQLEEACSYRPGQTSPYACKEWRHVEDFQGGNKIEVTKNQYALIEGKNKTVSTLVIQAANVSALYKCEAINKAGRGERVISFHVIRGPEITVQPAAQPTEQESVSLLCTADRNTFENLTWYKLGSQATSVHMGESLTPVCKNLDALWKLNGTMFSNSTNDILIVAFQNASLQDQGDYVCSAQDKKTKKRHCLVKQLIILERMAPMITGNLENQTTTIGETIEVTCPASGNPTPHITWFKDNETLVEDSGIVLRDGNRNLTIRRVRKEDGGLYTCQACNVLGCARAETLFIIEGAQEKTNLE
# Assay: ELISA, plate-coated Flk-1/Fc 500 ng/mL, hybridoma supernatant 1:5
# Description: The cross-reactivity of antibodies in the hybridoma supernatant was tested against KDR mouse ortholog (mouse VEGFR2, or Flk-1) and human VEGFR1 (Flt-1). Cross-reactivity was measured using an ELISA based assay.
# After washing and blocking the plates, the antibody-containing supernatants were added (at 1:5 dilution) into the coated wells and incubated for one hour at room temperature. The plates were then incubated with mouse anti-human IgG 2, 3 and 4 and subsequently with goat anti-mouse IgG Fc POD, to detect and measure bound antibodies.
row,Binder,OD (450 nm) [OD450]
1,B1,0.094
2,B2,0.108
3,B3,0.092
4,B4,0.097
5,B6,0.074
6,B7,0.166
7,B8,0.107
8,B9,0.076
9,B10,0.096

# Biological target: T1, human KDR (VEGFR2) on cells
# Assay: cell-based or functional assay
# Remark: another data set of the same source
row,Binder,% Inhibition of VEGF-E-mediated pTyr Activity [%]
1,B1,40
2,B2,54
3,B3,57
4,B4,46
5,B5,20
6,B6,61
7,B7,63
8,B8,50
9,B9,66
10,B10,18

# Biological target: T4, soluble KDR (VEGF Receptor 2 D1-7, Cat. #676490, Calbiochem) (human, UniProt P35968 20-764)
# T4 construct: extracellular domain; Bought reagent; also called soluble human KDR; immobilized soluble KDR
# T4 sequence (P35968 20-764): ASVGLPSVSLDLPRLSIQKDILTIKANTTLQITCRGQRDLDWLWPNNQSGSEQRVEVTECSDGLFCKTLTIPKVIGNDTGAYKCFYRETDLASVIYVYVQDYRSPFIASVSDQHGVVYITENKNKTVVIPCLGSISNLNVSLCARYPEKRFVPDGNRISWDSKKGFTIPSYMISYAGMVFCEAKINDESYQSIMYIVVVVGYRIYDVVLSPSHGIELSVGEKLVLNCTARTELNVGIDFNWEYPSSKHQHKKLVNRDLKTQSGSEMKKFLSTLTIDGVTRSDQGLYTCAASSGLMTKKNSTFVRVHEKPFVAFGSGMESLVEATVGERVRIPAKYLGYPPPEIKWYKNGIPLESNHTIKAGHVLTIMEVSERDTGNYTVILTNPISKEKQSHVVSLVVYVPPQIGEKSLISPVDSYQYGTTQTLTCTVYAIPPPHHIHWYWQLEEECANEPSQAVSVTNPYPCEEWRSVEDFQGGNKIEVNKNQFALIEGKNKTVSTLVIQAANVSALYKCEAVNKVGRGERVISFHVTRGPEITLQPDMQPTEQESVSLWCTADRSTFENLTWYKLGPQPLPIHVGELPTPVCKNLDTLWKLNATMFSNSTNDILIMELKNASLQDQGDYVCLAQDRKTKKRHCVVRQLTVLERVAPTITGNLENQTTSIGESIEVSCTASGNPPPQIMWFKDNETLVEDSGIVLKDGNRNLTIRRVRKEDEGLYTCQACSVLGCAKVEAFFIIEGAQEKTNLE
# Assay: ELISA, plate-coated soluble KDR 250 ng/mL, hybridoma supernatant 1:5
# Description: To screen by binding to immobilized soluble KDR, plates were coated with KDR (Calbiochem) at 250 ng/mL overnight at 4° C. After blocking and washing the coated plates, the candidate hybridoma supernatants (at 1:5 dilution) were transferred to the plates and incubated for one hour at room temperature. The plates were then washed and incubated with secondary antibody (at 1:4000 dilution) for one hour at room temperature.
row,Binder,KDR OD(450 nm) [OD450]
1,B1,6
2,B2,1.11
3,B3,1.07
4,B4,4.55
5,B5,0.943
6,B6,1.18
7,B7,3.24
8,B8,0.786
9,B9,1.15
10,B10,0.83

# Biological target: T1, human KDR (VEGFR2) on cells
# Assay: FACS on HUVEC, hybridoma supernatant 1:50
# Description: HUVECs were seeded at 15,000 cells/well and incubated with 100 μL of sample supernatant (at 1:50 dilution) for one hour at 4° C. The positive control was goat anti-KDR antibody (R&D Systems, Inc.), and negative controls included irrelevant hybridoma supernatants at the same dilution. The cells were then washed and incubated with Cy5-conjugated goat anti-human antibody at 5 μg/mL and 7-Amino-Actinomycin D (7AAD) at 5 μg/mL for 15 minutes at 4° C. Bound KDR was detected using FACS analysis.
row,Binder,FACS Geometric Mean
1,B1,26
2,B2,25
3,B3,28
4,B4,14
5,B5,31
6,B6,24
7,B7,24
8,B8,25
9,B9,20
10,B10,27
